This test concerns the target RPA heterotrimer with the phosphomimetic Asp8-RPA2 subunit (UniProt P27694). As to the kind of experiment: co-IP.

In the case of “MRE11/RAD50/NBS1 (MRN) complex (from UniProt P49959 1-708; Q92878 1-1312; O60934 1-754)”, the percent decrease in binding against RPA came to 88%.
